Measurements from the supplement of paper PMC10724198.
± gives the standard deviation of the averaged measurements.

Columns and labels:
[1] = tested on: Saccharomyces cerevisiae; experiment: protein stability index of tFT-peptide fusion (C-terminal peptide) (PSI (0-1 scale)); higher = more stable (slower turnover); settings: genetic background: wild type; temperature: 30 C
[2] = tested on: Saccharomyces cerevisiae; experiment: as above
Description: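 MPS profiling in S. cerevisiae of the tFT-X12 degron library: putative degron peptides plus stable controls, 12 aa, fused to the C-terminus of a sfGFP-mCherry timer. Cells are FACS-sorted into 8 mCherry/sfGFP bins and deep-sequenced. PSI runs from 0 (unstable) to 1 (stable). Backgrounds are wild type, das1Δ and doa10Δ at 30 °C, and wild type, das1Δ, cdc34-1 and cdc53-1 at 37 °C; 2-3 technical replicates each.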

[3] = genetic background: cdc34-1, temperature: 37 C
[4] = genetic background: cdc53-1, temperature: 37 C
[5] = genetic background: das1 deletion, temperature: 30 C
[6] = genetic background: das1 deletion, temperature: 37 C
[7] = genetic background: doa10 deletion, temperature: 30 C
[8] = genetic background: wild type, temperature: 30 C
[9] = genetic background: wild type, temperature: 37 C
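Note: PSI is a weighted mean of sequencing reads over stability bins, variants kept only with over 10 reads, mCherry proximal and sfGFP distal, peptide attached via GGGS linker.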

Sequence	protein stability index [1]	protein stability index [2, 3]	protein stability index [2, 4]	protein stability index [2, 5]	protein stability index [2, 6]	protein stability index [2, 7]	protein stability index [2, 8]	protein stability index [2, 9]
FSFFLYFFLLLF	0.315 ± 0.0031	0.327 ± 0.025	0.304 ± 0.0072	0.31 ± 0.026	0.402 ± 0.016	0.392 ± 0.032	0.271 ± 0.034	0.389 ± 0.016
FSGRYFLLFRFL	0.104 ± 0.019	0.238 ± 0.035	0.28 ± 0.0032	0.341 ± 0.0075	0.389 ± 0.0091	0.083 ± 0.015	0.0605 ± 0.014	0.144 ± 0.038
FSLLTWPFVFLV	0.08711 ± 0.00051	0.126 ± 0.021	0.0782 ± 0.0059	0.252 ± 0.041	0.346 ± 0.037	0.0816 ± 0.015	0.0575 ± 0.0078	0.0613 ± 0.011
FVCWGSLILCGG	0.264 ± 0.012	0.151 ± 0.0074	0.1833 ± 0.0012	0.19 ± 0.028	0.29 ± 0.0062	0.1516 ± 0.00087	0.181 ± 0.027	0.258 ± 0.0085
FVFAMSECIVLS	0.308 ± 0.0053	0.269 ± 0.014	0.318 ± 0.0043	0.205 ± 0.025	0.393 ± 0.0046	0.269 ± 0.0044	0.214 ± 0.022	0.364 ± 0.00049
FVLWLIYVDLFF	0.287 ± 0.094	0.214 ± 0.039	0.234 ± 0.013	0.196 ± 0.048	0.342 ± 0.015	0.181 ± 0.019	0.22 ± 0.033	0.339 ± 0.041
FVSHRRFSLFLY	0.209 ± 0.02	0.584 ± 0.038	0.691 ± 0.011	0.602 ± 0.019	0.726 ± 0.046	0.124 ± 0.0019	0.143 ± 0.021	0.203 ± 0.019
FVVLVFMLGSVC	0.365 ± 0.037	0.274 ± 0.035	0.379 ± 0.029	0.254 ± 0.044	0.454 ± 0.044	0.234 ± 0.0062	0.245 ± 0.049	0.426 ± 0.035
FVVVGLGLLCLA	0.473 ± 0.013	0.492 ± 0.0066	0.565 ± 0.011	0.362 ± 0.027	0.569 ± 0.0068	0.257 ± 0.015	0.305 ± 0.02	0.491 ± 0.014
FVWVVRMLVFVP	0.276 ± 0.017	0.178 ± 0.0058	0.2493 ± 0.00099	0.187 ± 0.025	0.383 ± 0.023	0.165 ± 0.008	0.16 ± 0.025	0.3 ± 0.0077
FWHGRCPGLYLV	0.27 ± 0.0087	0.583 ± 0.11	0.639 ± 0.018	0.607 ± 0.012	0.7263 ± 0.0042	0.163 ± 0.009	0.169 ± 0.03	0.304 ± 0.005
FYIRFYVYSWLF	0.3604 ± 0.0023	0.376 ± 0.0093	0.441 ± 0.011	0.304 ± 0.051	0.492 ± 0.0077	0.278 ± 0.0083	0.303 ± 0.01	0.46 ± 0.0047
FYLSSCFLFLRF	0.355 ± 0.0087	0.174 ± 0.052	0.136 ± 0.046	0.311 ± 0.012	0.33618 ± 0.0003	0.62 ± 0.04	0.288 ± 0.017	0.305 ± 0.023
GAVRRWGGVSFV	0.259 ± 0.068	0.626 ± 0.041	0.707 ± 0.026	0.643 ± 0.011	0.707 ± 0.032	0.662 ± 0.028	0.664 ± 0.0068	0.679 ± 0.015
GDLEFCCLIIVL	0.321 ± 0.0098	0.4401 ± 0.0033	0.556 ± 0.072	0.302 ± 0.018	0.5755 ± 0.005	0.27 ± 0.042	0.306 ± 0.032	0.5052 ± 0.0033
GELPGELYKFWL	0.754 ± 0.03	0.769 ± 0.052	0.7774 ± 0.005	0.664 ± 0.022	0.7558 ± 0.0025	0.671 ± 0.024	0.671 ± 0.016	0.743 ± 0.021
GFFLLSFLFFVR	0.224 ± 0.032	0.148 ± 0.0056	0.181 ± 0.037	0.212 ± 0.023	0.393 ± 0.034	0.234 ± 0.02	0.195 ± 0.021	0.311 ± 0.007
GFGDKVPWRWVI	0.227 ± 0.045	0.606 ± 0.037	0.759 ± 0.022	0.657 ± 0.026	0.7816 ± 0.0045	0.124 ± 0.01	0.135 ± 0.0096	0.244 ± 0.0061
GFSVFSHSVWVR	0.313 ± 0.014	0.133 ± 0.044	0.0797 ± 0.0059	0.19 ± 0.032	0.271 ± 0.012	0.437 ± 0.016	0.194 ± 0.011	0.238 ± 0.013
GGICVVAYWRLA	0.198 ± 0.025	0.4654 ± 0.0011	0.518 ± 0.006	0.388 ± 0.034	0.564 ± 0.01	0.0948 ± 0.013	0.105 ± 0.021	0.173 ± 0.0065

Sequence	protein stability index [1]	protein stability index [2, 3]	protein stability index [2, 4]	protein stability index [2, 5]	protein stability index [2, 6]	protein stability index [2, 7]	protein stability index [2, 8]	protein stability index [2, 9]
GGMGLWCCVSVG	0.527 ± 0.099	0.665 ± 0.01	0.6779 ± 0.0056	0.528 ± 0.027	0.68341 ± 0.00034	0.513 ± 0.015	0.54 ± 0.015	0.651 ± 0.0083
GGRSLYAILCAV	0.321 ± 0.03	0.3216 ± 0.0018	0.393 ± 0.018	0.277 ± 0.028	0.4669 ± 0.0034	0.166 ± 0.021	0.197 ± 0.027	0.261 ± 0.011
GGSLWLVHLKTI	0.181 ± 0.044	0.604 ± 0.059	0.761 ± 0.038	0.633 ± 0.035	0.718 ± 0.025	0.118 ± 0.026	0.158 ± 0.011	0.275 ± 0.082
GGTFWDGLVLVH	0.497 ± 0.097	0.34 ± 0.023	0.418 ± 0.03	0.32 ± 0.028	0.484 ± 0.0082	0.274 ± 0.013	0.334 ± 0.035	0.45476 ± 9.2e-06
GGYGAGLRSPLF	0.736 ± 0.044	0.709 ± 0.04	0.755 ± 0.013	0.6761 ± 0.0025	0.741 ± 0.015	0.664 ± 0.014	0.661 ± 0.0099	0.729 ± 0.022
GINHLSLKLRLF	0.262 ± 0.017	0.647 ± 0.049	0.723 ± 0.017	0.631 ± 0.014	0.7423 ± 0.0037	0.109 ± 0.037	0.133 ± 0.0058	0.288 ± 0.01
GIVSGEGAVGVG	0.509 ± 0.025	0.46 ± 0.041	0.511 ± 0.025	0.468 ± 0.0097	0.5212 ± 0.0039	0.488 ± 0.022	0.466 ± 0.011	0.4989 ± 0.0019
GIVYFDQWISVS	0.461 ± 0.052	0.546 ± 0.031	0.538 ± 0.082	0.393 ± 0.022	0.571 ± 0.016	0.321 ± 0.0069	0.347 ± 0.02	0.544 ± 0.0084
GLACNPQLLRWT	0.756 ± 0.051	0.692 ± 0.014	0.7433 ± 0.0064	0.653 ± 0.018	0.7437 ± 0.0035	0.665 ± 0.035	0.654 ± 0.027	0.7175 ± 0.0069
GLFGFASPPPPS	0.25 ± 0.032	0.678 ± 0.042	0.7583 ± 0.0047	0.677 ± 0.016	0.749 ± 0.0081	0.6784 ± 0.0035	0.71 ± 0.021	0.722 ± 0.011
GLLAEPALLLLS	0.499 ± 0.1	0.661 ± 0.06	0.699 ± 0.027	0.618 ± 0.0073	0.724 ± 0.023	0.604 ± 0.037	0.62 ± 0.025	0.6881 ± 0.0066
GLLLLGIRLKWG	0.269 ± 0.011	0.139 ± 0.029	0.274 ± 0.037	0.208 ± 0.015	0.363 ± 0.026	0.157 ± 0.014	0.206 ± 0.013	0.328 ± 0.02
GLLLRLRNLFCM	0.522 ± 0.042	0.759 ± 0.087	0.8043 ± 0.0034	0.748 ± 0.019	0.851 ± 0.028	0.387 ± 0.026	0.391 ± 0.02	0.547 ± 0.05
GLVVVVRLQYSP	0.404 ± 0.027	0.309 ± 0.027	0.424 ± 0.02	0.329 ± 0.017	0.458 ± 0.011	0.27482 ± 1.4e-06	0.299 ± 0.016	0.4415 ± 0.0014
GLYFFVVRIFKV	0.27 ± 0.059	0.219 ± 0.021	0.345 ± 0.075	0.221 ± 0.039	0.437 ± 0.013	0.167 ± 0.0056	0.184 ± 0.022	0.336 ± 0.0096
GPGTWLFCFVRF	0.509 ± 0.027	0.504 ± 0.032	0.55 ± 0.0069	0.432 ± 0.029	0.602 ± 0.0065	0.475 ± 0.017	0.42 ± 0.022	0.612 ± 0.031
GQFFRCWRRRLC	0.171 ± 0.081	0.634 ± 0.044	0.709 ± 0.0072	0.649 ± 0.03	0.72 ± 0.022	0.145 ± 0.019	0.166 ± 0.028	0.443 ± 0.011
GRGLRVCWVWSG	0.286 ± 0.016	0.622 ± 0.054	0.7084 ± 0.0069	0.605 ± 0.019	0.7428 ± 0.0054	0.147 ± 0.013	0.18 ± 0.015	0.387 ± 0.013
GRHRRIRYVKTS	0.261 ± 0.087	0.633 ± 0.05	0.723 ± 0.0099	0.655 ± 0.014	0.744 ± 0.028	0.146 ± 0.024	0.183 ± 0.03	0.3527 ± 0.00097
